Measurements published in the supplement of paper PMC9112550, “Optimization of the antimicrobial peptide Bac7 by deep mutational scanning” (BMC Biology, 2022).

Tested on: Escherichia coli TOP10
Experiment: shrunken log2 fold change of peptide-encoding DNA abundance (4.5 h post-induction vs induction); higher = less antimicrobial activity (less host growth inhibition)
Conditions: time post-induction: 4.5 h; library: site-saturation at positions 5, 18, 19, 20
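Also: peptides expressed intracellularly from a pBAD plasmid library in pooled LB shake-flask culture, induced with 0.3% L-arabinose, DNA abundance read by NGS, three biological replicates, DESeq2 with apeglm shrinkage.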

Sequence | shrunken log2 fold change
RRIRFRPPRLPRPRPRPNAHPRP | 0.0459
RRIRSRPPRLPRPRPRPYSMPRP | -0.721
RRIRYRPPRLPRPRPRPEQRPRP | -0.067
RRIRERPPRLPRPRPRPWVAPRP | -0.00272
RRIRERPPRLPRPRPRPAVNPRP | -0.00945
RRIRTRPPRLPRPRPRPRDGPRP | 0.456
RRIRSRPPRLPRPRPRPLRVPRP | 1.29
RRIRLRPPRLPRPRPRPRCTPRP | 0.0989
RRIRRRPPRLPRPRPRPAYFPRP | 0.401
RRIRRRPPRLPRPRPRPDDIPRP | -0.00879
RRIRYRPPRLPRPRPRPIMAPRP | -0.708
RRIRIRPPRLPRPRPRPWRYPRP | -0.0701
RRIRTRPPRLPRPRPRPKPGPRP | 0.299
RRIRCRPPRLPRPRPRPKIMPRP | -0.622
RRIRPRPPRLPRPRPRPPAQPRP | 0.57
RRIRFRPPRLPRPRPRPKLTPRP | -0.069
RRIRWRPPRLPRPRPRPNYLPRP | -1
RRIRGRPPRLPRPRPRPFPQPRP | 0.717
RRIRMRPPRLPRPRPRPYAFPRP | -0.0624
RRIRSRPPRLPRPRPRPYMCPRP | -0.903
RRIRDRPPRLPRPRPRPHAKPRP | 0.0435
RRIRCRPPRLPRPRPRPDLRPRP | -0.035
RRIRVRPPRLPRPRPRPGHMPRP | 0.0482
RRIRHRPPRLPRPRPRPRITPRP | -0.0394
RRIRKRPPRLPRPRPRPGFNPRP | 0.0583

Sequence | shrunken log2 fold change
RRIRWRPPRLPRPRPRPYEAPRP | -0.569
RRIRARPPRLPRPRPRPSRSPRP | 0.349
RRIRHRPPRLPRPRPRPEFRPRP | 0.00953
RRIRFRPPRLPRPRPRPEPMPRP | -0.278
RRIRARPPRLPRPRPRPVMNPRP | -0.0562
RRIRIRPPRLPRPRPRPGVRPRP | 0.135
RRIRCRPPRLPRPRPRPARDPRP | 1.84
RRIRTRPPRLPRPRPRPAIWPRP | 0.238
RRIRARPPRLPRPRPRPGLNPRP | 0.196
RRIRARPPRLPRPRPRPFFHPRP | -0.0215
RRIRDRPPRLPRPRPRPYFAPRP | -0.413
RRIRQRPPRLPRPRPRPGTDPRP | -0.0507
RRIRVRPPRLPRPRPRPAHFPRP | 0.31
RRIRVRPPRLPRPRPRPIWRPRP | 0.207
RRIRCRPPRLPRPRPRPNVSPRP | 0.0773
RRIRIRPPRLPRPRPRPMIQPRP | 0.102
RRIRTRPPRLPRPRPRPHDSPRP | -0.229
RRIRCRPPRLPRPRPRPRDMPRP | -0.167
RRIRGRPPRLPRPRPRPGMFPRP | 0.474
RRIRCRPPRLPRPRPRPIPHPRP | -0.744
RRIRWRPPRLPRPRPRPHAIPRP | -0.124
RRIRWRPPRLPRPRPRPKDYPRP | 0.0778
RRIRKRPPRLPRPRPRPEQTPRP | 1.15
RRIRPRPPRLPRPRPRPCHCPRP | 0.153
RRIRMRPPRLPRPRPRPPGPPRP | 1.41

Sequence | shrunken log2 fold change
RRIRLRPPRLPRPRPRPMKAPRP | -0.0274
RRIRTRPPRLPRPRPRPMQIPRP | 0.08
RRIRKRPPRLPRPRPRPSMVPRP | -0.13
RRIRFRPPRLPRPRPRPEEYPRP | -0.00963
RRIRMRPPRLPRPRPRPQLWPRP | 0.998
RRIRRRPPRLPRPRPRPWPKPRP | 0.13
RRIRARPPRLPRPRPRPLRDPRP | 0.948
RRIRPRPPRLPRPRPRPCWCPRP | -0.0719
RRIRERPPRLPRPRPRPWGTPRP | -0.121
RRIRHRPPRLPRPRPRPSRCPRP | -0.648
RRIRPRPPRLPRPRPRPDMHPRP | -0.042
RRIRSRPPRLPRPRPRPSFFPRP | -0.211
RRIRMRPPRLPRPRPRPQRQPRP | 0.0595
RRIRFRPPRLPRPRPRPPDVPRP | 0.0274
RRIRQRPPRLPRPRPRPDRQPRP | 0.0104
RRIRNRPPRLPRPRPRPEDYPRP | -0.133
RRIRPRPPRLPRPRPRPEFGPRP | 0.327
RRIRIRPPRLPRPRPRPGNFPRP | -0.064
RRIRCRPPRLPRPRPRPPNKPRP | -0.0142
RRIRLRPPRLPRPRPRPMEMPRP | -0.0251
RRIRPRPPRLPRPRPRPKCRPRP | 0.00849
RRIRERPPRLPRPRPRPYFDPRP | -0.926
RRIRNRPPRLPRPRPRPETPPRP | 0.36
RRIRKRPPRLPRPRPRPSDMPRP | 0.0199
RRIRWRPPRLPRPRPRPQPFPRP | 0.133
